B1: SC16 with the N-terminal signal sequence removed (18Thr-114Leu of the hyd1 gene of S. commune) (natural protein, Schizophyllum commune, UniProt D8QCG9 18-114, looked up)
chain: TAVPRDVNGGTPPKSCSSGPVYCCNKTEDHLDKGTTALLGLLNIKIGDLKDLVGLNCSPLSVIGVGGNSCSAQTVCCTNTYQHGLVNVGCTPINIGL
notes: Expressed as H6-GB1-SC16 with a thrombin site; also called hydrophobin SC16; not shown: His6, N-terminal, cleaved; B1 domain of protein G (GB1), N-terminal, cleaved
B2: SC16 with 13 residues from the N-terminal tail removed (residues 31Lys-114Leu of SC16) (domain or fragment, Schizophyllum commune, UniProt D8QCG9 31-114, looked up)
chain: KSCSSGPVYCCNKTEDHLDKGTTALLGLLNIKIGDLKDLVGLNCSPLSVIGVGGNSCSAQTVCCTNTYQHGLVNVGCTPINIGL
notes: class IB hydrophobin SC16, product of the hyd1 gene of Schizophyllum commune, NCBI ID EFI94929, residues 31Lys-114Leu; Expressed as H6-GB1-SC16ΔN with a thrombin site; also called SC16ΔN; not shown: His6, N-terminal, cleaved; B1 domain of protein G (GB1), N-terminal, cleaved

Molecular target: the molecule itself
Assay: thioflavin T fluorescence; self-assembly during agitation (air:water interface), 50 μg/mL protein, 20 μM ThT, multicomponent buffer pH 8.5 with 1 M NaCl (SC16ΔN also at pH 5.5-8.5 with 10 mM-1 M NaCl), 6 replicates

Row | Protein | binding result
1 | B1 | binds
2 | B2 | binds
